Our source for the Ki values is patent US20250312499A1, “KISSPEPTIN RECEPTOR (KISS1R) TARGETED THERAPEUTICS AND USES THEREOF” (priority 2024, published 2025).

B1: Compound 11 (peptide)
peptide: {DOTA-Ahx}-FGL[X2]Y-NH2
SMILES: Cc1ccc(CNCC(=O)N2CCC(NC(=O)[C@H](CC(C)C)NC(=O)CNC(=O)[C@H](Cc3ccccc3)NC(=O)CCCCCNC(=O)CN3CCN(CC(=O)O)CCN(CC(=O)O)CCN(CC(=O)O)CC3)(C(=O)N[C@@H](Cc3ccc(O)cc3)C(N)=O)CC2)cc1F
B2: Compound 254 (peptide)
peptide: {HO(CH2CH2O)2CH2CH2CO}-[dK](DOTA)NTF[azaGly]L[X2][4Pal]-NH2
SMILES: Cc1ccc(CNCC(=O)N2CCC(NC(=O)[C@H](CC(C)C)NC(=O)NNC(=O)[C@H](Cc3ccccc3)NC(=O)[C@@H](NC(=O)[C@H](CC(N)=O)NC(=O)[C@@H](CCCCNC(=O)CN3CCN(CC(=O)O)CCN(CC(=O)O)CCN(CC(=O)O)CC3)NC(=O)CCOCCOCCO)[C@@H](C)O)(C(=O)N[C@@H](Cc3ccncc3)C(N)=O)CC2)cc1F
B3: Compound 244 (peptide)
peptide: {DOTA-APM}-F[azaGly]L[X2][Phe(4-CN)]-NH2
modifications: reading uncertain
B4: Compound 253 (peptide)
peptide: {HO(CH2CH2O)2CH2CH2CO}-K(DOTA)NTF[azaGly]L[X2][4Pal]-NH2
SMILES: Cc1ccc(CNCC(=O)N2CCC(NC(=O)[C@H](CC(C)C)NC(=O)NNC(=O)[C@H](Cc3ccccc3)NC(=O)[C@@H](NC(=O)[C@H](CC(N)=O)NC(=O)[C@H](CCCCNC(=O)CN3CCN(CC(=O)O)CCN(CC(=O)O)CCN(CC(=O)O)CC3)NC(=O)CCOCCOCCO)[C@@H](C)O)(C(=O)N[C@@H](Cc3ccncc3)C(N)=O)CC2)cc1F
B5: Compound 249 (peptide)
peptide: {DOTA-APM}-NTF[azaGly]L[X2]Y-NH2
modifications: reading uncertain
B6: Compound 247 (peptide)
peptide: {DOTA-APM}-F[azaGly]L[X2]Y-NH2
modifications: reading uncertain
B7: Compound 245 (peptide)
peptide: {DOTA-APM}-F[azaGly]L[X2]F-NH2
modifications: reading uncertain
B8: Compound 241 (peptide)
peptide: {DOTA-4Amb}-ENTF[azaGly]L[X2][Phe(4-CN)]-NH2
SMILES: Cc1ccc(CNCC(=O)N2CCC(NC(=O)[C@H](CC(C)C)NC(=O)NNC(=O)[C@H](Cc3ccccc3)NC(=O)[C@@H](NC(=O)[C@H](CC(N)=O)NC(=O)[C@H](CCC(=O)O)NC(=O)c3ccc(CNC(=O)CN4CCN(CC(=O)O)CCN(CC(=O)O)CCN(CC(=O)O)CC4)cc3)[C@@H](C)O)(C(=O)N[C@@H](Cc3ccc(C#N)cc3)C(N)=O)CC2)cc1F
B9: Compound 242 (peptide)
peptide: {DOTA-4Amb}-[dE]NTF[azaGly]L[X2][Phe(4-CN)]-NH2
SMILES: Cc1ccc(CNCC(=O)N2CCC(NC(=O)[C@H](CC(C)C)NC(=O)NNC(=O)[C@H](Cc3ccccc3)NC(=O)[C@@H](NC(=O)[C@H](CC(N)=O)NC(=O)[C@@H](CCC(=O)O)NC(=O)c3ccc(CNC(=O)CN4CCN(CC(=O)O)CCN(CC(=O)O)CCN(CC(=O)O)CC4)cc3)[C@@H](C)O)(C(=O)N[C@@H](Cc3ccc(C#N)cc3)C(N)=O)CC2)cc1F
B10: Compound 236 (peptide)
peptide: {DOTA-Ahx}-ENTF[azaGly]L[Apc(4-OMe)]F-NH2
B11: Compound 235 (peptide)
peptide: {DOTA-Ahx}-NTF[azaGly]L[Apc(4-OMe)]F-NH2
B12: Compound 250 (peptide)
peptide: {DOTA-APM}-TF[azaGly]L[X2]Y-NH2
modifications: reading uncertain
B13: Compound 238 (peptide)
peptide: {DOTA-Ahx}-ENTF[azaGly]L[X2]W-NH2
SMILES: Cc1ccc(CNCC(=O)N2CCC(NC(=O)[C@H](CC(C)C)NC(=O)NNC(=O)[C@H](Cc3ccccc3)NC(=O)[C@@H](NC(=O)[C@H](CC(N)=O)NC(=O)[C@H](CCC(=O)O)NC(=O)CCCCCNC(=O)CN3CCN(CC(=O)O)CCN(CC(=O)O)CCN(CC(=O)O)CC3)[C@@H](C)O)(C(=O)N[C@@H](Cc3c[nH]c4ccccc34)C(N)=O)CC2)cc1F
B14: Compound 256 (peptide)
peptide: {1‑hydroxy‑3,6,9,12,15,18,21,24‑octaoxaheptacosan‑27‑oyl}-K(DOTA)NTF[azaGly]L[X2][4Pal]-NH2
B15: Compound 266 (peptide)
peptide: {DOTA}-[dY][2Nal]NTF[azaGly]L[Api(1-amidino)]W-NH2
SMILES: CC(C)C[C@H](NC(=O)NNC(=O)[C@H](Cc1ccccc1)NC(=O)[C@@H](NC(=O)[C@H](CC(N)=O)NC(=O)[C@H](Cc1ccc2ccccc2c1)NC(=O)[C@@H](Cc1ccc(O)cc1)NC(=O)CN1CCN(CC(=O)O)CCN(CC(=O)O)CCN(CC(=O)O)CC1)[C@@H](C)O)C(=O)NC1(C(=O)N[C@@H](Cc2c[nH]c3ccccc23)C(N)=O)CCN(C(=N)N)CC1
B16: Compound 255 (peptide)
peptide: {3‑(2-(2-methoxyethoxy)ethoxy)propanoyl}-K(DOTA)NTF[azaGly]L[X2][4Pal]-NH2
B17: Compound 264 (peptide)
peptide: {3‑(2-(2-methoxyethoxy)ethoxy)propanoyl}-K(DOTA)NTF[azaGly]L[Api(1-amidino)]W-NH2
B18: Compound 10 (peptide)
peptide: {DOTA-Ahx}-FGL[X2]W-NH2
SMILES: Cc1ccc(CNCC(=O)N2CCC(NC(=O)[C@H](CC(C)C)NC(=O)CNC(=O)[C@H](Cc3ccccc3)NC(=O)CCCCCNC(=O)CN3CCN(CC(=O)O)CCN(CC(=O)O)CCN(CC(=O)O)CC3)(C(=O)N[C@@H](Cc3c[nH]c4ccccc34)C(N)=O)CC2)cc1F
B19: Compound 237 (peptide)
peptide: {DOTA}-ENTF[azaGly]L[Apc(4-OMe)]F-NH2
B20: Compound 240 (peptide)
peptide: {DOTA-4Amb}-NTFGL[X2][Phe(4-CN)]-NH2
modifications: not fully specified

As a reminder, the Ki is the equilibrium dissociation constant of an inhibitor or competing ligand from its target.

Numbered stars: 1 amine (or outer) side, 2 acyl side, 3 side chain; on linkers, the order of the positions; unused ones are H or OH. Square brackets hold non-standard residues; d marks the D form. * marks the point of attachment. X2 = 4‑amino‑1‑((3-fluoro-4-methylbenzyl)glycyl)piperidine‑4‑carboxylic acid, Cc1ccc(CN(CC(=O)N2CCC(N[*:1])(C(=O)[*:2])CC2)[*:3])cc1F; Apc(4-OMe) = 4-aminopiperidine-4-carboxylic acid residue N1-acylated by a methoxy-bearing benzylglycyl; DOTA = O=C(O)CN1CCN(CC(=O)O)CCN(CC(=O)*)CCN(CC(=O)O)CC1; Api(1-amidino) = N=C(N)N1CCC(N)(C(=O)O)CC1; Phe(4-CN) = N#Cc1ccc(C[C@H](N)C(=O)O)cc1; HO(CH2CH2O)2CH2CH2CO = O=C(CCOCCOCCO)*; 2Nal = N[C@@H](Cc1ccc2ccccc2c1)C(=O)O; 4Pal = N[C@@H](Cc1ccncc1)C(=O)O; 4Amb = NCc1ccc(C(=O)O)cc1; APM = not defined here; Ahx = NCCCCCC(=O)O; azaGly = NNC(=O)O A value given as a limit tells only on which side of the number the result lay.

Sequence of human kisspeptin receptor (KISS1R) (human), Q969F8 (Q969F8 whole entry): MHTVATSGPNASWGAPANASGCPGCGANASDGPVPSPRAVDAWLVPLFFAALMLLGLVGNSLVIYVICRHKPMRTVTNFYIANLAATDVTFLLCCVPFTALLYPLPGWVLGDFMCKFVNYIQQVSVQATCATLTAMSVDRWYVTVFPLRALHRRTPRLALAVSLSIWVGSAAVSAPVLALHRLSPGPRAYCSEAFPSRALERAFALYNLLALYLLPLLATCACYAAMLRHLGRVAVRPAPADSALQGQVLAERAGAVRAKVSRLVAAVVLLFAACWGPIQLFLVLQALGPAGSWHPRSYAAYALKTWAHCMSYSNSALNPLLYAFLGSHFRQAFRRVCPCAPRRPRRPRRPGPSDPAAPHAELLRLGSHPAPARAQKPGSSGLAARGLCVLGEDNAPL

This experiment addresses human kisspeptin receptor (KISS1R) (human), Q969F8. Briefly: radioligand competition, hKISS1R membranes; legend: A is <10 nM. Background: Displacement assays read how much labelled ligand stays bound in the presence of the test substance.
As to B1, the Ki was < 10 nM.

On to B2, for which the Ki is < 10 nM.

For B3, the Ki was < 10 nM.

In the case of B4, the Ki is < 10 nM.

For the molecule B5, the inhibitory constant (Ki) was < 10 nM.

Turning to B6, the Ki was < 10 nM.

With B7, the inhibitory constant (Ki) is < 10 nM.

Take B8: the Ki is < 10 nM.

Take B9: the Ki was < 10 nM.

As for B10, the inhibition constant Ki was < 10 nM.

Turning to B11, the Ki was < 10 nM.

As to B12, the Ki is < 10 nM.

B13: the inhibitory constant (Ki) is < 10 nM.

Turning to B14, the inhibition constant (Ki) is < 10 nM.

For the molecule B15, the Ki was < 10 nM.

Consider B16, for which the inhibitory constant (Ki) is < 10 nM.

Consider B17, for which the Ki is < 10 nM.

With B18, the inhibitory constant (Ki) was < 10 nM.

For B19, the inhibition constant Ki is < 10 nM.

In the case of B20, the inhibitory constant (Ki) was < 10 nM.
